B1: Wnt inhibitory factor 1 (Homo sapiens), Q9Y5W5 (parent)
chain: MARRSAFPAAALWLWSILLCLLALRAEAGPPQEESLYLWIDAHQARVLIGFEEDILIVSEGKMAPFTHDFRKAQQRMPAIPVNIHSMNFTWQAAGQAEYFYEFLSLRSLDKGIMADPTVNVPLLGTVPHKASVVQVGFPCLGKQDGVAAFEVDVIVMNSEGNTILQTPQNAIFFKTCQQAECPGGCRNGGFCNERRICECPDGFHGPHCEKALCTPRCMNGGLCVTPGFCICPPGFYGVNCDKANCSTTCFNGGTCFYPGKCICPPGLEGEQCEISKCPQPCRNGGKCIGKSKCKCSKGYQGDLCSKPVCEPGCGAHGTCHEPNKCQCQEGWHGRHCNKRYEASLIHALRPAGAQLRQHTPSLKKAEERRDPPESNYIW
partner: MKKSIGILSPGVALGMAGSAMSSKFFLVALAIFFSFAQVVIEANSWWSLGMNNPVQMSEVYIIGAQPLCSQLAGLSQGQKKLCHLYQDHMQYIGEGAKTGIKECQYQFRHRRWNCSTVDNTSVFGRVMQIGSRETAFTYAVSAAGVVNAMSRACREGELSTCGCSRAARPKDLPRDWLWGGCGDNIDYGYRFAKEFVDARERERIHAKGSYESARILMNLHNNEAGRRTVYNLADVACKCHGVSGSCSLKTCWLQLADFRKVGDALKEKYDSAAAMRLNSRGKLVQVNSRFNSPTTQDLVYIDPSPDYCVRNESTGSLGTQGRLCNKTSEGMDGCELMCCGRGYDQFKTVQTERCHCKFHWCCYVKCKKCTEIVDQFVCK
B2: Wnt inhibitory factor 1 (Homo sapiens), Q9Y5W5 (parent)
chain: B1 chain
partner: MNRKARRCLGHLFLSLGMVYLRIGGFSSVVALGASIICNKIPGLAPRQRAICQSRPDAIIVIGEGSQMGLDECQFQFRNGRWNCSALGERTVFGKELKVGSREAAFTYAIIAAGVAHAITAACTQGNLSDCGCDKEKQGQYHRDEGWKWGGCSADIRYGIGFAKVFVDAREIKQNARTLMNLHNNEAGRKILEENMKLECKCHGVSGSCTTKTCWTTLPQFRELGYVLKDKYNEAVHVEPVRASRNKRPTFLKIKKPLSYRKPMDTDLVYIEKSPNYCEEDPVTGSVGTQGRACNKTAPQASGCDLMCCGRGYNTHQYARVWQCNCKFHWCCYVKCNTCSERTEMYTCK

Variants of: B1
Conditions: with wnt5a_human WNT5A

| effect of a mutation on the interaction | Variant |
| --- | --- |
| disrupting interaction | I155R |

Variants of: B1
Conditions: with wnt5a_human WNT5A
Remark: another data set of the same source

| effect of a mutation on the interaction | Variant |
| --- | --- |
| decreasing interaction | I155R |

Variants of: B2
Conditions: with wnt7a_human WNT7A

| effect of a mutation on the interaction | Variant |
| --- | --- |
| decreasing interaction | I172R |
| decreasing interaction | L123R |
| decreasing interaction | I155R |

Variants of: B2
Conditions: with wnt7a_human WNT7A
Remark: another data set of the same source

| effect of a mutation on the interaction | Variant |
| --- | --- |
| increasing interaction | I155R |

Source: IntAct's records for PubMed 26342861
